Laboratory results from US10266565B2, “Peptide mimetic ligands of polo-like kinase 1 polo box domain and methods of use” (The United States of America, as represented by the …, priority 2011, dated 2019).
Entries after “also recorded” stand apart in the source; their conditions may differ. Where a SMILES comes first, the peptide text is derived from it. Where no end group is shown, it is not given here. [ ]: non-standard residue; d: D form. The star is where a group is joined. His(π-(CH2)8Ph) = N[C@@H](Cc1cncn1CCCCCCCCc1ccccc1)C(=O)O; Abu(3R-Me,4-PO3H2) = C[C@@H](CP(=O)(O)O)[C@H](N)C(=O)O; CH3O(CH2CH2O)7C2H4CO = COCCOCCOCCOCCOCCOCCOCCOCCC(=O)*; pT = C[C@@H](OP(=O)(O)O)[C@H](N)C(=O)O; PEG = not defined here

Columns and labels:
[1] = target: T1, Plk1 (Homo sapiens, UniProt P53350); assay: Peptide pull-down assay with bead-immobilized peptides, Plk1; assay type: binding; details: for Plk1 binding / precipitation in pull-down, in words: mitotic cell lysates
T1 construct: we used total lysates prepared from mitotic HeLa cells; endogenous in cells; host or cells: mitotic (nocodazole-arrested) HeLa cells
Description: For Plk1 pull-down assays with immobilized peptides, we used total lysates prepared from mitotic HeLa cells. […] Cells treated with 200 ng/ml of nocodazole for 16 h were lysed in TBSN buffer {20 mM Tris-Cl (pH8.0), 150 mM NaCl, 0.5% NP-40, 5 mM EGTA, 1.5 mM EDTA, 0.5 mM Na3VO4, 20 mM p-nitrophenyl phosphate, and protease inhibitor cocktail (Roche, Nutley, N.J.)}, and then clarified by centrifugation at 15,000×g for 20 min at 4° C. The resulting lysates were incubated with bead-immobilized peptides (40 μM per binding) for 2 h, precipitated, washed, and then boiled in sodium dodecyl sulfate (SDS) sample buffer to elute the associated proteins. Samples were separated by 10% SDS-polyacrylamide gel electrophoresis (PAGE), and then either stained with silver or transferred to PVDF membrane for immunoblotting analysis with anti-Plk1 antibody using the enhanced chemiluminescence (ECL) detection system (Pierce). […]

[2] = target: Plk1 PBD (Homo sapiens, UniProt P53350); assay: Isothermal titration calorimetry with recombinant Plk1 PBD; assay type: binding
[3] = target: Plk1 PBD-p-Cdc25C interaction (Homo sapiens, UniProt P53350); assay: Competition of the PBD-p-Cdc25C interaction in mitotic HeLa lysates; assay type: binding; details: GST-PBD
Description: For p-Cdc25C pull-down assays, either bead-bound GST-PBD or the corresponding GST-PBD(H538A K540M) mutant was incubated with mitotic HeLa lysates in TBSN buffer supplemented with 2 mM DTT. To test the ability of the indicated peptides to compete the PBD-p-Cdc25C interaction, lysates were pre-incubated with GST-PBD for 1.5 h prior to the addition of the indicated peptides. Lysates were then incubated for additional 1.5 h, washed in the binding buffer, and then analyzed. For competition of the interaction between p-Cdc25C and endogenous Plk1, mitotic lysates were prepared in TBSN and incubated with the indicated peptides for 1 h before subjecting to immunoprecipitation with anti-Plk1 antibody.

[4] = system: HeLa cells; assay: Direct treatment of cultured HeLa cells (mitotic arrest, apoptotic cell death, Plk1 localization); assay type: cell-based; details: 200 μM
[5] = target: T2, Plk2 (Mus musculus, UniProt P53351, K108M); assay: Peptide pull-down assay with bead-immobilized peptides, Plk2; assay type: binding
T2 construct: expressed in transfected cells
Description: After incubating the cell lysates prepared in TBSN buffer {20 mM Tris-Cl (pH8.0), 150 mM NaCl, 0.5% Np-40, 5 mM EGTA, 1.5 mM EDTA, 20 mM p-nitrophenylphosphate and protease inhibitor cocktail (Roche, Nutley, N.J.)} with the bead-immobilized ligands for 2 h at 4° C., the ligand-associating proteins were precipitated, washed, boiled in sodium dodecyl sulfate (SDS) sample buffer, separated by 8% SDS-polyacrylamide gel electrophoresis (PAGE), and then subjected to immunoblotting analysis with anti-Flag antibody and the enhanced chemilunimescence (ECL) detection system (Pierce). The same membrane was also stained with Coomassies (CBB). Signal intensities were quantified using Image J program.
To investigate the binding specificity of p-T78 peptides to various Plks, Flag-Plk1 (K82M), Flag-Plk2(K108M)3 or Flag-Plk3(K52R) (a gift of Wei Dai, New York University School of Medicine, NY) construct was first transfected into HeLa cells. Cellular lysates were prepared as above, mixed, and then incubated in TBSN buffer with the immobilized peptides indicated.

[6] = system: HeLa cells; assay: Microinjection of peptides into HeLa cells; assay type: cell-based; details: for Plk1 localization at centrosomes and kinetochores: microinjection; for mitotic arrest / cell cycle effect, in words: peptide introduced into the cells
Description: HeLa cells were cultured as subconfluent monolayers under the conditions recommended by American Type Culture Collection (Manassas, Va.). […] No mitotic exit was observed during the period of 10 min BMI-1026 treatment. For microinjection experiments with the Pmab-containing mimetic peptides, cells were arrested for 16 h with 2.5 mM thymidine (Sigma) and released into fresh medium. Two hours after release from the S phase block, the indicated peptides (2.5 mM stock in PBS) were microinjected into the cells using Eppendorf® Transjector 5246 (Eppendorf®, Westbury, N.Y.) at the 150 hPa pressure level and the 0.5 second injection time. All the cells in a single grid were injected and then further incubated to monitor cell cycle progression. For microinjection experiments with the F2Pmab-containing mimetic peptides, cells were arrested with 2.5 mM thymidine for 16 h twice with a 9 h release interval, and then released into fresh medium. Seven hours after release from the G1/S phase block, the indicated peptides (4 mM stock in PBS) were microinjected similarly as above. Where indicated, peptides containing the final concentration of 30 ng/μl of pEGFP-C1 vector (Clontech®, Mountain View, Calif.) were used to visualize the injected cells.
Four hours after microinjection, cells were fixed and subjected to immunostaining analyses as described below.
Similar methods were used for the experiments shown in FIG. 16 using the peptides indicated. HeLa cells were arrested at the G1/S boundary by double thymidine treatment and released into fresh medium. […] Co-injected EGFP plasmid provided a convenient marker to identify the microinjected cells.
Indirect immunostaining was carried out as described previously (5) using anti-Plk1 antibody (Santa Cruz Biotechnologies, Santa Cruz, Calif.) and anti-CREST antiserum (Cortex Biochem, San Leandro, Calif.). All the appropriate secondary antibodies were purchased from Jackson ImmunoResearch Laboratories, Inc. (West Grove, Pa.). Biotinylated F2Pmab-positive cells were detected by co-staining with FITC-conjugated Streptavidin (Invitrogen®, Carlsbad, Calif.). Chromosomes were visualized with 4′,6-diamidino-2-phenylindole (DAPI) (Sigma). Digital images were collected with a Zeiss LSM510 confocal microscope. For the quantification of the fluorescence signal intensities, images of unsaturated fluorescence signals were acquired with the same laser intensity at 512×512 pixels and 12-bit resolution. Fluorescence intensities for localized signals were determined after subtracting the background signal intensities using Zeiss AIM confocal software.

[7] = target: T3, Plk2 PBD (Homo sapiens, UniProt Q9NYY3); assay: Isothermal titration calorimetry with recombinant Plk2 PBD; details: titrated into Plk2 PBD
T3 sequence (Q9NYY3 373-685): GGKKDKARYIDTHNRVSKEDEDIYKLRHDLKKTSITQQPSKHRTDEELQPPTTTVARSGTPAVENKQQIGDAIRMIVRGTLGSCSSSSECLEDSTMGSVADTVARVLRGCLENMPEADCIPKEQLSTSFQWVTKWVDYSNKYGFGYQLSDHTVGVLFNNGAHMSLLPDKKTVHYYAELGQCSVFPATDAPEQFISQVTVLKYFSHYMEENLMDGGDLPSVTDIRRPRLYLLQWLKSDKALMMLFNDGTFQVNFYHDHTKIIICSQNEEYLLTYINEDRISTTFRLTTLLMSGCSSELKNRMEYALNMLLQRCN
Description: The calorimetric titrations were carried out using purified recombinant PBDs (for Plk1 and Plk2) from bacterial cells and the indicated peptides.
The calorimetric titrations were performed on a VP-ITC titration calorimeter (Microcal, Inc., Northampton, Mass.). In a typical experiment, 5 l aliquots of a phosphorylated peptide were injected from a 250 l syringe into a rapidly mixing (300 rpm) solution of Plk1 PBD (cell volume=1.3472 ml). Control experiments involved injecting identical amounts of the peptide solution into buffer without Plk1 PBD. […] Titrations were carried out at 25° C. in 20 mM Tris-Cl (pH 7.5), 100 mM NaCl, 3 mM DTT. The isotherms, corrected for dilution/buffer effects, were fit using the Origin ITC Analysis software according to manufacturer's protocols. A nonlinear least-square method was used to fit the titration data and to calculate the errors. Consistent with the structural data, a 1:1 stoichiometry was assumed and the data were fit to a one-site binding model. From the binding curve, values for enthalpy and binding affinity were extracted. Thermodynamic parameters were calculated using ΔG=−RTlnKa, ΔG=ΔH−TΔS.
Full length PBD was dialyzed against a low salt buffer (20 mM Tris-Cl, pH 7.5, 100 mM NaCl, 3 mM DTT), and used in calorimetry experiments.

[8] = target: T4, Flag-Plk3 (K52R) (UniProt Q9H4B4 40-646, K52R); assay: pull-down with bead-immobilized peptide, mixed Flag-Plk1/2/3 lysates (293T)
T4 construct: In lysates of transfected cells

[9] = target: Plk1 PBD (construct and assay format not stated at these places) (UniProt P53350); assay: assay not given
[10] = target: Plk1 (endogenous, HeLa cells) (UniProt P53350); assay: pull-down with bead-immobilized peptide, mitotic HeLa lysate
Chain of Plk1 (endogenous, HeLa cells) (P53350 2-603 limits assumed): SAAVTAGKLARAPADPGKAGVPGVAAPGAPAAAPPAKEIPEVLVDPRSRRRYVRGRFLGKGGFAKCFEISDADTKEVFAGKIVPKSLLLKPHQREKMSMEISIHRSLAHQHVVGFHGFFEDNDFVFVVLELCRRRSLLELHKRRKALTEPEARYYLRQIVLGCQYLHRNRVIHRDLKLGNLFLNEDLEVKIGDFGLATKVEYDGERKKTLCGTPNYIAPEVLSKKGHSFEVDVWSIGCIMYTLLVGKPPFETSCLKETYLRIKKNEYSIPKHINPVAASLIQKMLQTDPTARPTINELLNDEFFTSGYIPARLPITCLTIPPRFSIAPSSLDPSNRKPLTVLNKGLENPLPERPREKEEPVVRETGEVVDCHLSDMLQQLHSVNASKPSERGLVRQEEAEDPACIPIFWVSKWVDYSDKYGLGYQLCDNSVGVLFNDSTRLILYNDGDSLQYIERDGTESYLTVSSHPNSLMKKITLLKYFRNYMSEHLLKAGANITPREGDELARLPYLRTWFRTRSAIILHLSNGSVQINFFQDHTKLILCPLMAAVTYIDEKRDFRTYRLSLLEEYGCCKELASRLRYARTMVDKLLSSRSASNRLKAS

T1 sequence (P53350 2-603): as the sequence (P53350 2-603 limits assumed) above
Chain of Plk1 PBD (P53350 326-603): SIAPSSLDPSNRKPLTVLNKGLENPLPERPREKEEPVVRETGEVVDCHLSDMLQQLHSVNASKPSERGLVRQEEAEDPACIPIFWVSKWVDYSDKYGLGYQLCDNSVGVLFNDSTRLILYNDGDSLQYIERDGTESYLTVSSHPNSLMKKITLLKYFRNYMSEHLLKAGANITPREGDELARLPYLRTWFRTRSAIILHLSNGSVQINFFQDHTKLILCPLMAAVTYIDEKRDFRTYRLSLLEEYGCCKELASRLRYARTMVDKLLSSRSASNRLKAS
Chain of Plk1 PBD-p-Cdc25C interaction (P53350 326-603 limits assumed): as the sequence (P53350 326-603) above
T4 sequence (Q9H4B4 40-646 K91R): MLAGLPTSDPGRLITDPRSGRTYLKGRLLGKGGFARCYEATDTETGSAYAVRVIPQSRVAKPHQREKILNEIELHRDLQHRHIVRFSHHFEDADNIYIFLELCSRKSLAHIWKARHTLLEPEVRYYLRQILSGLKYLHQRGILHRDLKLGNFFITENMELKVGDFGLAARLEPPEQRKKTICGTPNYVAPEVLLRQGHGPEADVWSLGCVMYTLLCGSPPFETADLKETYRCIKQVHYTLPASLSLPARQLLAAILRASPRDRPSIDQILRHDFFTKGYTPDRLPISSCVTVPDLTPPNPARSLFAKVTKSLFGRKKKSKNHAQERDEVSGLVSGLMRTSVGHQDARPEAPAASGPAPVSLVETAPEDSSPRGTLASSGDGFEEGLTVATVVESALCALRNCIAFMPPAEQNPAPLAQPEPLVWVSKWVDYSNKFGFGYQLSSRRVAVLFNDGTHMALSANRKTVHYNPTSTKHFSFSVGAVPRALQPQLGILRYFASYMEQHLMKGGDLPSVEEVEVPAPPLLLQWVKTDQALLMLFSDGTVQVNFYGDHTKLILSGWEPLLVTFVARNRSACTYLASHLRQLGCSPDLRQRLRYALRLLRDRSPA
Chain of Plk1 PBD (construct and assay format not stated at these places) (P53350 326-603 limits assumed): as the sequence (P53350 326-603) above
T2 sequence (P53351 whole entry K108M): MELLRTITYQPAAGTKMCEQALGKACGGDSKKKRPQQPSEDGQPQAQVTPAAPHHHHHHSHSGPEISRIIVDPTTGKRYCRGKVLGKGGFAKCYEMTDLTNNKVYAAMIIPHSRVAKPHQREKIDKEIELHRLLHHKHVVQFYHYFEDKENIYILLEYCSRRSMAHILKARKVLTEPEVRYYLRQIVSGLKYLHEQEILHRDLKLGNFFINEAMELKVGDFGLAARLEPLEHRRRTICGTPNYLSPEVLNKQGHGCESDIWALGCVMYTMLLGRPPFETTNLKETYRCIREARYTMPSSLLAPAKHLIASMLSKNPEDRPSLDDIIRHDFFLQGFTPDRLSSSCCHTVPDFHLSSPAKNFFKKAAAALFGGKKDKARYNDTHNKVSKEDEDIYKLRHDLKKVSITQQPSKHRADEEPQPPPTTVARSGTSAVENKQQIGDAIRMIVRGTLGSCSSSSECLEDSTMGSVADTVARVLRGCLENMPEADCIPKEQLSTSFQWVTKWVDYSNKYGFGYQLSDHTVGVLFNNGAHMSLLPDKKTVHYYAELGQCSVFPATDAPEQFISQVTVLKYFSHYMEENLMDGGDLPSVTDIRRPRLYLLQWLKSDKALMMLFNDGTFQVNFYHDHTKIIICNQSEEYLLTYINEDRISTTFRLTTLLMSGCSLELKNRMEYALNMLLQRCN

## LHSpT: "LHSpT (SEQ ID NO: 14) lacking the N-terminal Pro" (LHS[pT])
[1]
  diminished binding affinity to Plk1 relative to PLHSpT: ~7 fold
  Plk1 binding / precipitation in pull-down, in words: bound to Plk1 better than SpTAI
[2]
  binding affinity by calorimetry, in words: much lower affinities
[2]; assay not given
  weaker binding than PLHSpT: ~50 fold
[3]
  disruption of the pre-formed PBD-p-Cdc25C complex: much less effective than PLHSpT; also recorded: disrupted the complex weakly

## HSpTAI: "HSpTAI, lacking both Pro and Leu but instead bearing two additional C-terminal residues following the SpT motif" (HS[pT]AI)
[1]
  Plk1 binding / precipitation in pull-down, in words: bound to Plk1 only weakly

## COCCOCCOCCOCCOCCOCCOCCOCCC(=O)N1CCC[C@H]1C(=O)N[C@@H](CC(C)C)C(=O)N[C@@H](Cc1cncn1CCCCCCCCc1ccccc1)C(=O)N[C@@H](C)C(=O)N[C@H](C(N)=O)[C@@H](C)CP(=O)(O)O [PEG-4j* (S/A)] ({CH3O(CH2CH2O)7C2H4CO}-PL[His(π-(CH2)8Ph)]A[Abu(3R-Me,4-PO3H2)]-NH2)
[4]
  Plk1 delocalization and misaligned chromosomes: not
  mitotic arrest / apoptotic cell death / cellular response: did not

## PLHA-Pmab: "a mutation of the invariably required Ser-1 residue to Ala {PLHA-Pmab (SEQ ID NO: 20); in short, Pmab(S77A)}" (PLHA[Abu(3R-Me,4-PO3H2)])
[1]
  Plk1 binding / precipitation in pull-down, in words: abolished the Plk1 binding

## HSpT: "HSpT lacking both the Pro and Leu residues" (His-Ser-[pT])
[1]
  Plk1 binding / precipitation in pull-down, in words: did not exhibit any significant level of binding

## CSCC[C@H](N)C(=O)N[C@@H](CCC(N)=O)C(=O)N[C@@H](CO)C(=O)N[C@H](C(=O)N1CCC[C@H]1C(=O)N[C@@H](CC(C)C)C(N)=O)[C@@H](C)OP(=O)(O)O [MQSpTPL, reference compound]
[5]; lysates with similar levels of Plk1, Plk2, Plk3
  Plk2 precipitation as efficiency of Plk1 precipitation: ~27%

## Pmab(S77A): the S77A mutants of the Pmab- and the F2Pmab-containing peptides (24 and 26, respectively) (PLHA[Abu(3R-Me,4-PO3H2)])
[6]
  Plk1 localization at centrosomes and kinetochores: not
  mitotic arrest / cell cycle effect, in words: not

## non-phospho T78 peptide: "the respective non-phospho PLHST (SEQ ID NO: 11) control peptide"
[6]
  Plk1 localization at centrosomes and kinetochores: not
  mitotic arrest / cell cycle effect, in words: proceeded through the cell cycle normally

## MLHSpT: "a Pro-4 to Met-4 mutant, MLHSpT (SEQ ID NO: 18)" (MLHS[pT])
[1]
  Plk1 binding / precipitation in pull-down, in words: greatly diminished level of Plk1 PBD binding

## PLQSpT: "mutation of the His-2 to Gln"; "the PLQSpT mutant" of parent PLHSpT (PLQS[pT])
[5]; His-2 to Gln mutant versus PLHSpT
  increase of the level of Plk2 binding: 24 fold
[7]
  initial heats of interaction: ~-1.1 kcal/mol

## HSpTA: 4-mer p-T78 peptide "HSpTA (SEQ ID NO: 15)" (HS[pT]A)
[1]
  Plk1 binding / precipitation in pull-down, in words: bound to Plk1 better than SpTAI
[2]
  binding affinity by calorimetry, in words: much lower affinities
[3]
  disruption of the pre-formed PBD-p-Cdc25C complex: disrupted the complex weakly

## LHSpTAI: "the analogous p-T78 peptide (LHSpTAI (SEQ ID NO: 17))" (LHS[pT]AI)
[1]
  Plk1 binding / precipitation in pull-down, in words: equivalent to that of the former
[2]
  binding affinity by calorimetry, in words: slightly higher affinities than the 5-mer peptides

## COCCOCCOCCOCCOCCOCCOCCOCCC(=O)N1CCC[C@H]1C(=O)N[C@@H](CC(C)C)C(=O)N[C@@H](Cc1cnc[nH]1)C(=O)N[C@@H](CO)C(=O)N[C@H](C(N)=O)[C@@H](C)CP(=O)(O)O [PEG-1*]
[4]
  Plk1 delocalization and misaligned chromosomes: only mild Plk1 delocalization with a moderate level of misaligned chromosomes
  mitotic arrest / apoptotic cell death / cellular response: weak but significant level of mitotic arrest

## COCCOCCOCCOCCOCCOCCOCCOCCC(=O)N1CCC[C@H]1C(=O)N[C@@H](CC(C)C)C(=O)N[C@@H](Cc1cnc[nH]1)C(=O)N[C@@H](C)C(=O)N[C@H](C(N)=O)[C@@H](C)CP(=O)(O)O [PEG-1* (S/A)] ({CH3O(CH2CH2O)7C2H4CO}-PLHA[Abu(3R-Me,4-PO3H2)]-NH2)
[4]
  Plk1 delocalization and misaligned chromosomes: not
  mitotic arrest / apoptotic cell death / cellular response: not

B1: PEG-4j* (peptide)
peptide: {PEG}-PLH(Ph‑(CH2)8)S[Abu(3R-Me,4-PO3H2)]
modifications: reading uncertain
notes: T0009: Z = CH2, G = Ph-(CH2)8-, R1 = PEG; also called Cys-PEG-4j* (bead-immobilized form)
[8]
  binding result: no binding

## Ac-PLH(Ph‑(CH2)8)S[pT] (also called peptide 4j; Compound 4j) [4j (Biological Example 1)]
[8]
  binding result: no binding

## LHS[pT] [LHSpT]
[9]
  fold weaker binding than PLHSpT: 50 fold
[10]
  fold diminished binding relative to PLHSpT: 7 fold

## Ac-PPHS[pT] [PPHSpT]
[9]
  fold diminished binding affinity: 20 fold
